Patent US20110077250, “COMPOUNDS FOR MODULATING RNA BINDING PROTEINS AND USES THEREFOR” (published 2011)

Biological target: T1, MEX-5 (UniProt Q9XUB2 Q9XUB2:236-350)
T1 sequence: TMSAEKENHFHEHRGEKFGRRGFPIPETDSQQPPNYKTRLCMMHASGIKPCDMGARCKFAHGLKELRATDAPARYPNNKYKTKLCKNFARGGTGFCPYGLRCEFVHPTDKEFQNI
Test: FP; 120 nM protein, 2 nM RNA, 100 uM zinc acetate, 20-50 mM Tris pH 8.0, 40-100 mM NaCl, tRNA; Z-value 0.8-0.9; also by gel shift; small-molecule inhibition of complex measured
Details: tags: N-terminal MBP fusion (pMal-c, NEB); HTS paragraph says C-terminal fusion to MBP; from Open Biosystems ORFeome clone; label: 3'-fluorescein (FITC)

B1: TCR2 RNA (ssRNA)
RNA: UUUCUUUAUAACUUGUUACAAUUUUUGAAA
B1: binds.
